For this experiment, the target named is T1, cell-surface GRP78 (csGRP78) on mouse alveolar macrophages (primary AMs; MH-S cells) (mouse, UniProt P20029 20-655).
T1 construct: whole, on cells; Endogenous protein on mouse cells; the species follows from the cells used; also called Glucose-Regulated Protein 78 kDa
Description: confocal immunofluorescence on non-permeabilized primary alveolar macrophages, 1 µM rISM1. The method, then: Cell-surface GRP78 (csGRP78) has been previously detected on mouse peritoneal macrophages (Misra, Gonzalez-Gronow et al., 2005) and human monocytes (Lu, Lai et al., 2010). Primary AMs were treated with recombinant ISM1 (rISM1) to determine if csGRP78 is present and serves as an ISM1 receptor on AMs. It was observed that rISM1 binds to csGRP78 on non-permeabilized AMs (FIG. 6C) and co-localized with GRP78 intracellularly (FIG. 6D), leading to AM apoptosis (FIG. 2K and FIG. 6E). Similarly, rISM1 induced apoptosis in immortalized mouse AM cells (MH-S) upon thapsigargin (TG) pretreatment (FIG. 6F), an ER stress inducer known to promote GRP78 translocation to the cell surface (Li, Ni et al., 2008). […] Increased AMs in Ism1^{Δ/Δ} lungs contributed towards protease-antiprotease imbalance, thus leading to spontaneous COPD in Ism1^{Δ/Δ} mice under ambient air.
(FIG. 6C). […] In FIG. 6C, representative confocal images of primary AMs for rISM1 (red) and GRP78 (green) co-localization after 1 µM rISM1 treatment for 1 hour are shown (Nuclei were stained with DAPI (blue)). Further, mouse AM cell line MH-S cells undergo ISM1 induced apoptosis when the cells were pre-treated with thapsigargin (TG), which induce ER stress and upregulate csGRP78. Denatured ISM1 (boiled) lost this pro-apoptotic function, indicating this pro-apoptotic activity is a function of the ISM1 protein. […]

T1 sequence (P20029 20-655): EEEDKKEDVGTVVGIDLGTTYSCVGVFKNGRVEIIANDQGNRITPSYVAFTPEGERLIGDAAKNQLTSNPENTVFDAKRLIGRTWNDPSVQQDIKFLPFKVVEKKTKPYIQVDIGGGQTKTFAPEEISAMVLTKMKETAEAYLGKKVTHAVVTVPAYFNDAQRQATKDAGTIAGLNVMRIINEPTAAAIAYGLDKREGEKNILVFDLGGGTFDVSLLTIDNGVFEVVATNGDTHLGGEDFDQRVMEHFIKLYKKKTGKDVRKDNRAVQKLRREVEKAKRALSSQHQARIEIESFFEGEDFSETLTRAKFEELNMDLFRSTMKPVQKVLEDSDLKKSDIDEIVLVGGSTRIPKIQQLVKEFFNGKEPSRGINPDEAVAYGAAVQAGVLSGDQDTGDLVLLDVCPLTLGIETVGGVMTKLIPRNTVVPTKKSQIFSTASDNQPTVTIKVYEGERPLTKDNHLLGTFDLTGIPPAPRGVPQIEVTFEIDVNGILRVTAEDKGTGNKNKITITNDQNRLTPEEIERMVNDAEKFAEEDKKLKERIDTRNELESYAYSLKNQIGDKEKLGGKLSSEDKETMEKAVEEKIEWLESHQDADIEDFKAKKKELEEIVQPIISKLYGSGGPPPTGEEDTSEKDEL

B1: recombinant ISM1 (rISM1), mouse mature form without signal peptide, 6xHis-tagged, expressed in E. coli (vector pET-M) (ligand)
chain: SDRQDAAAGNVSGSQLQNNLNLESDSTSETSFPLSKEAPEEHQVVHQPFPRQRFPPETGHPSLQRDGPRSFLLDLPNFPDLSKADINGQNPNIQVTIEVVDGPDSEAEKDQHPENKPSWSLPAPDWRAWWQRSLSLARTNSGDQDDKYDSTSDDSNFLSVPRGWDRPAPGHRTFETKEQPEYDSTDGEGDWSLWSVCSVTCGNGNQKRTRSCGYACIATESRTCDRPNCPGIEDTFRTAATEVSLLAGSEEFNATKLFEVDMDSCERWMSCKSEFLKKYMHKVINDLPSCPCSYPTEVAYSTADIFDRIKRKDFRWKDASGPKEKLEIYKPTARYCIRSMLSLESTTLAAQHCCYGDNMQLITRGKGAGTPNLISTEFSAELHYKVDVLPWIICKGDWSRYNEARPPNNGQKCTESPSDEDYIKQFQEAREYLEHHHHHH
notes: also called mouse rISM1
For B1, the binding result is “binds”.

The values above are taken from US20230190868A1 (NATIONAL UNIVERSITY OF SINGAPORE, published 2023).
